Literature values, collected in PMC4495883.

Biological target: insulin-degrading enzyme (112 kDa protein) (Rattus norvegicus) (UniProt P35559)
Assay: cross-linking

Sequence of UniProt P35559 (P35559 whole entry): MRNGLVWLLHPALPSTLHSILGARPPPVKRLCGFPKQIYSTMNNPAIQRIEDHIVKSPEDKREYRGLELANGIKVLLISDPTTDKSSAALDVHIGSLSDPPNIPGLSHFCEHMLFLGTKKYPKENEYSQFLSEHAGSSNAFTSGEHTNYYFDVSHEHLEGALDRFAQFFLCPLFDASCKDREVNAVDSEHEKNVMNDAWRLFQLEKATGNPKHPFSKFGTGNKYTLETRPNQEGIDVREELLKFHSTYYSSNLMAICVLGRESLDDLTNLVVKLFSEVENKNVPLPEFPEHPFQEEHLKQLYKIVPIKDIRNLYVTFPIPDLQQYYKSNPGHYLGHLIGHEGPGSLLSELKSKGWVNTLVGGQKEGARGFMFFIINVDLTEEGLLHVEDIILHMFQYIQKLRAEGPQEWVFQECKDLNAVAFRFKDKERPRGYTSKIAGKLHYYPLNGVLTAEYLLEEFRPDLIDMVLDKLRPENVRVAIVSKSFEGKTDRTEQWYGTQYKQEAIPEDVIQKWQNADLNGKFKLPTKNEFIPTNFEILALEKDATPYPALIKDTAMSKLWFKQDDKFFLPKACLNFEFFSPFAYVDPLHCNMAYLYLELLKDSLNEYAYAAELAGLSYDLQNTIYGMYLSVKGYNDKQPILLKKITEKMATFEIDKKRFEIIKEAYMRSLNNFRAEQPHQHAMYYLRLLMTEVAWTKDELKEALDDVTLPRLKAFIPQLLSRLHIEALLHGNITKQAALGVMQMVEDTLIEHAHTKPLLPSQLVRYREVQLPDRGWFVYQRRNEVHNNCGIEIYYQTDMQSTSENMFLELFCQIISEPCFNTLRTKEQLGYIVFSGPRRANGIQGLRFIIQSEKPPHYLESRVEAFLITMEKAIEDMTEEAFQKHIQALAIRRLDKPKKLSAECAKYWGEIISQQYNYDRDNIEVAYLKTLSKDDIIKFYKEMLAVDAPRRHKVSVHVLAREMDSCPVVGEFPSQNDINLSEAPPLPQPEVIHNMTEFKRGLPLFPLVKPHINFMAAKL

ANP (from UniProt P01161)
Kd: 60 nM
